As a reminder, the pKd is the negative decadic logarithm of the Kd, by convention in mol/L. Low values mean a high Kd, high ones a low Kd.

The assay has as its target B′ protein (GyrB C-terminal domain) of M. tuberculosis DNA gyrase (M. tuberculosis). As to the kind of experiment: […]) in 50 mM Tris–HCl.

pKd: −log10 of the molar value.

On to “B′ protein (GyrB C-terminal domain) of M. tuberculosis DNA gyrase (domain or fragment)”, for which the pKd was > 6.00.

The values are drawn from paper PMC3201873.
